Assay results: PMC2190830

molecular target: human high affinity Fc gamma receptor, Fc gamma RI (human) (UniProt P12314); assay: enzymatic cell-binding assay
UniProt P12314, sequence (P12314 16-374): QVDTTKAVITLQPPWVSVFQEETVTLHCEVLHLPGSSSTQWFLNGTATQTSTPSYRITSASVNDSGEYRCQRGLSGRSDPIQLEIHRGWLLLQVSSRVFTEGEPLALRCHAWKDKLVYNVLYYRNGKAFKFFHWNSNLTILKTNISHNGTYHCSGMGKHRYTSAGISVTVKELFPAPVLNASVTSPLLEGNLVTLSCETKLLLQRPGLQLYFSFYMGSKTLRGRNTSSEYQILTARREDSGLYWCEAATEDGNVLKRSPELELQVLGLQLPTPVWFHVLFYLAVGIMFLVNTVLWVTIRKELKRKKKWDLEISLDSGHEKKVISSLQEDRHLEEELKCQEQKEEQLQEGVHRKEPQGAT

Substance	Ka [M⁻¹]	fold reduction in binding activity relative to IgG1 and IgG3 [fold]
chimeric anti-dansyl IgG3 (murine variable regions, human IgG3 constant region, human kappa light chain) (antibody)	1.2e+09	–
chimeric anti-dansyl IgG3(Ser[331]) (antibody)	3.1e+08	–
chimeric anti-dansyl IgG4 (murine variable regions, human IgG4 constant region, human kappa light chain) (antibody)	–	10
chimeric anti-dansyl IgG4(Leu[234]) (antibody)	3.8e+08	–
chimeric anti-dansyl IgG4(Leu[234], Pro[331]) (antibody)	1.3e+08	–
exon-exchange chimeric anti-dansyl IgG 3332 (IgG3 bearing the CH3 domain of IgG2) (antibody)	1.8e+09	–

Second part, the substance after the results:

Ka [M⁻¹]	fold reduction in binding activity relative to IgG1 and IgG3 [fold]	Substance
2e+08	–	CH1-deleted chimeric anti-dansyl IgG3 (IgG3 ΔCH1) (antibody)
2.2e+08	–	chimeric anti-dansyl IgG3 bearing a hinge encoded by the first (unique) gamma 3 hinge exon (IgG3h1) (antibody)
2.8e+08	–	exon-exchange chimeric anti-dansyl IgG 2232 (IgG2 with a gamma 3 CH2 domain) (antibody)
